In patent publication US20220185894A1 (F STAR THERAPEUTICS, published 2022):
Several values for one entry are separate records, joined by “and”; a condition that tells them apart may be missing. Identical values can stand only once.

Experiments:
[1] = molecular target: T1, human PD-L1 expressed on cells (human, UniProt Q9NZQ7 19-290); test: flow cytometry on HEK cells expressing human PD-L1
T1 construct: also called hPD-L1; human PD-L1 HEK
Procedure: (§1) HEK cells expressing human or cynomolgus PD-L1 grown in DMEM (Life Technologies, 61965-026) containing 10% FBS (Life Technologies, 10270-1-6), 100 μg/ml Hygromycin B (Melford Laboratories Ltd, Z2475), 15 μg/ml Blasticidin (Melford Laboratories Ltd, B1105) and 1 μg/ml Doxycyclin (Sigma, D9891) were detached from tissue culture flasks using cell dissociation buffer (Life Technologies, 13151-014) and seeded in V-bottom 96-well plates (Costar, 3897) at 2×10⁵ cells/well. The plates were centrifuged at 1500 rpm for 3 min at 4° C. to pellet the cells. A dilution series of the mAb² (or control mAb) was incubated with the cells in a 100 μl volume for 1 h at 4° C. The plates were washed and secondary antibody (Anti-human Fc-488, Jackson ImmunoResearch, 109-546-098) was diluted 1:1000 in PBS and 100 μl was added to the cells for 30 min at 4° C. (plates were kept in the dark). The plates were washed then cells were resuspended in 100 μl PBS containing 1 μg/ml DAPI (Biotium, 40043). The plates were read using Canto II flow cytometer (BD Bioscience). Dead cells were excluded and the fluorescence in the FITC channel (488 nm/530/30) was measured. The data was fit using log (agonist) vs response in GraphPad Prism Software. The plates were read on a BD FACSCanto II cytometer (BD Biosciences) and the data analysed using FlowJo.

[2] = molecular target: T2, human PD-L1 Fc (R&D Systems, 156-B7) (human, UniProt Q9NZQ7 19-239); test: SPR, BIAcore T200; mAb2 captured on Protein L, PD-L1 Fc injected
T2 construct: Bought protein; not shown: Fc tag of the bought fusion protein
T2 sequence (Q9NZQ7 19-239 limits assumed): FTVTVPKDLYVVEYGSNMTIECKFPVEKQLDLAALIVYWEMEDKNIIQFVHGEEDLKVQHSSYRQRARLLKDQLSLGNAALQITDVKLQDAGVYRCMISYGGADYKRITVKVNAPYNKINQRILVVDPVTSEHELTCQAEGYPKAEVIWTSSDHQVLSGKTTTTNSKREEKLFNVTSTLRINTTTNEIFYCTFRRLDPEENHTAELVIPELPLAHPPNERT

[3] = molecular target: T3, cynomolgus PD-L1 expressed on cells (cynomolgus monkey, UniProt Q9NZQ7 19-290 (human entry)); test: flow cytometry on HEK cells expressing cynomolgus PD-L1
T3 construct: also called cPD-L1; cyno PD-L1
T3 sequence (Q9NZQ7 other isoform, or with tags, fused parts or gaps limits assumed): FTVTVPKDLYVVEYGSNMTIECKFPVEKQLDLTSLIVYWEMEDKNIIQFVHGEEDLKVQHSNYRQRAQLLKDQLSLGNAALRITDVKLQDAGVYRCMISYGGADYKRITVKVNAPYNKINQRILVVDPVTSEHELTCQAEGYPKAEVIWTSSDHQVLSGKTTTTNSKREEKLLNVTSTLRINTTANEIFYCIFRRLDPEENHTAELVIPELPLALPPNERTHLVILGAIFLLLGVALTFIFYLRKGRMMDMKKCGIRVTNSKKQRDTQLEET
Procedure: as §1

[4] = molecular target: T1, human PD-L1 expressed on cells; test: cell-based or functional assay
[5] = molecular target: T4, recombinant Fc-tagged human LAG-3 (R&D Systems, 2319-L3-050) (human, UniProt P18627 23-450); test: SPR, BIAcore T200; mAb2 captured on Protein L, human LAG-3 Fc injected
T4 construct: Bought protein; also called LAG-3 Fc; human LAG-3-Fc; not shown: Fc tag of the bought fusion protein
T4 sequence: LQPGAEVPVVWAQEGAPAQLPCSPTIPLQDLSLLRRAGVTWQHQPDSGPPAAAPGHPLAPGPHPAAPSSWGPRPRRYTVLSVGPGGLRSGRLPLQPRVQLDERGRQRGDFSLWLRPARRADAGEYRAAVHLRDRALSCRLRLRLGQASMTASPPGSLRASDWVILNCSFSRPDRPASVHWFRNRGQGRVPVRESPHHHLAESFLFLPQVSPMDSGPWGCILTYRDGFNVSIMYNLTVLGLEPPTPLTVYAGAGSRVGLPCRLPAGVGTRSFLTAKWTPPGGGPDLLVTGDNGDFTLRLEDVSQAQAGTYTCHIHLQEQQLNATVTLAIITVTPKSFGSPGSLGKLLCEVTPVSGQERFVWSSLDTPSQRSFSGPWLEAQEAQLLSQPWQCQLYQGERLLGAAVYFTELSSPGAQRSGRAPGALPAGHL

T1 sequence (Q9NZQ7 19-290 limits assumed): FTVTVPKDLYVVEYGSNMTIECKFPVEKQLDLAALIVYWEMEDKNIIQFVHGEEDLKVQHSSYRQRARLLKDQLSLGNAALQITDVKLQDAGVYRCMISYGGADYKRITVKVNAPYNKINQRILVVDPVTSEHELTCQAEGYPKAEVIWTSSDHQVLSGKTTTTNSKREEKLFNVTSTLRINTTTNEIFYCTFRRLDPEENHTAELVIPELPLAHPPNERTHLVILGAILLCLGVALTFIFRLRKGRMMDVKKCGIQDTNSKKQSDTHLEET

B1: anti-human LAG-3/PD-L1 mAb2 FS18-7-9/84G09 with LALA mutation (bispecific antibody, human IgG1, kappa, L234A L235A)
heavy: EVQLVESGGGLVQPGRSLRLSCAASGFTFDDYAMHWVRQTPGKGLEWVSGISWKSNIIGYADSVKGRFTISRDNAKNSLYLQMNSLRAEDTALYYCARDITGSGSYGWFDPWGQGTLVTVSSASTKGPSVFPLAPSSKSTSGGTAALGCLVKDYFPEPVTVSWNSGALTSGVHTFPAVLQSSGLYSLSSVVTVPSSSLGTQTYICNVNHKPSNTKVDKKVEPKSCDKTHTCPPCPAPEAAGGPSVFLFPPKPKDTLMISRTPEVTCVVVDVSHEDPEVKFNWYVDGVEVHNAKTKPREEQYNSTYRVVSVLTVLHQDWLNGKEYKCKVSNKALPAPIEKTISKAKGQPREPQVYTLPPSWDEPWGEDVSLTCLVKGFYPSDIAVEWESNGQPENNYKTTPPVLDSDGSFFLYSKLTVPYDRWVWPDEFSCSVMHEALHNHYTQKSLSLSPG
light: DIQMTQSPSSLSASVGDRVTITCRASQSISSYLNWYQQKPGKAPKPLIYVASSLQSGVPSSFSGSGSGTDFTLTISSLQPEDFATYYCQQSYSNPITFGQGTRLEIKRTVAAPSVFIFPPSDEQLKSGTASVVCLLNNFYPREAKVQWKVDNALQSGNSQESVTEQDSKDSTYSLSSTLTLSKADYEKHKVYACEVTHQGLSSPVTKSFNRGEC
notes: also called FS18-7-09/84G09LALA; FS18-7-9/84G09 LALA
B1 was tested, and the EC50 [1] was 3.19 nM and 3.51 nM, the Kd [2] was 1 nM and the koff [2] was 0.00039 s⁻¹. The kon [2] was 380000 M⁻¹ s⁻¹, the EC50 [3] was 1.67 nM and 1.81 nM and the “Maximal IL2 release calculated as % ctrl (84G09 + 25F7)” value [4] was 65.9%. It also gave a Kd [5] of 0.056 nM, a koff [5] of 0.00035 s⁻¹ and a kon [5] of 6.3e+06 M⁻¹ s⁻¹.
